Consider one molecule from paper PMC12239582, “The cyclic di-GMP receptor YcgR links the second messenger with the putrescine quorum sensing system in modulation of Dickeya oryzae motility” (mBio, 2025).

The target of the experiment is T1, SpeA-His (Dickeya oryzae EC1, UniProt A0AB39IRQ5 1-658).
T1 sequence (looked up): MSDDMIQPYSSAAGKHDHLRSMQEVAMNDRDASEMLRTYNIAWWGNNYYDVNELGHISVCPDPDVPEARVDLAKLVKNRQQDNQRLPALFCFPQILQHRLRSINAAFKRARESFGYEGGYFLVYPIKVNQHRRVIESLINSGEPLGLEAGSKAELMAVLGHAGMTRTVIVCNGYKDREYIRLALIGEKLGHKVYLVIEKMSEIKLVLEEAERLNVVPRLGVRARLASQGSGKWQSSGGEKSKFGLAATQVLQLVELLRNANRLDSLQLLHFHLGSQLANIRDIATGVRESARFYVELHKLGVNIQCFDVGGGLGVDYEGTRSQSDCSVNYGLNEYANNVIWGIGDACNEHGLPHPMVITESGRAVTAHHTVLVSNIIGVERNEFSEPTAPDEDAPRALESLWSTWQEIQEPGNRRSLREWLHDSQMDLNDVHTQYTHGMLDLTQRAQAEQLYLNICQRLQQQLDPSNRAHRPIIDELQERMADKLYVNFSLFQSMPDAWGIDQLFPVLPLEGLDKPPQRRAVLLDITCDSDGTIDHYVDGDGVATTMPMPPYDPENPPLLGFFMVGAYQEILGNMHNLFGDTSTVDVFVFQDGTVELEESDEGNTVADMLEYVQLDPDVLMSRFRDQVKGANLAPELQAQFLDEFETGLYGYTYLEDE
Briefly: cell-based or functional assay.

B1: GST-YcgR (natural protein)
chain: MDVVDDNMKEQYARRGKMAICATLRGLQKQDATVMVYHTHGQFISKILEVDSDEEEFLFDLGALERENSRALFAGELGFVAETAGAKVEFRTTIIRTVEHDNLPAFCAAIPDVLYYIQRRNFFRINSPAWPPMVCRGELPDSTYFEFNLKDLSLGGLCMYTDDQGLAVLFEPGMILKNVDVDLASYGQFCLDMEFVNHATTKVVDSKGEVKQIERLSFKFPTLSAVQERGLQQVITELELDQNEKRKRLR
Regarding B1, the “yield of agmatine made by SpeA in vitro (OPA fluorescence) with YcgR added at a 2:1 ratio, against the reaction without YcgR; 75% increase at 1 h to about 160% at 2 h” value was ~160%.
